For experiment [1], the target named is β-arrestin-2-RLuc, P32121. The experiment in a line: BRET. The conditions noted are these: chain shown with the change, HEK293A cells, read off a plot. (BRET reads energy transfer from a luciferase to a nearby fluorophore.)
Experiment [2] has as its target β-arrestin-2-RLuc, P32121. Nature of the experiment: BRET. The conditions noted are these: chain shown with the change, HEK293A cells, read off a plot. The source holds these as a separate data set.
A further experiment concerns the target [125I]-Angiotensin II. The experiment in a line: competitive radioligand binding assay. To be noted: chain shown with the change, value read from the curve at the x tick, read off a plot.
Experiment [3] addresses β-arrestin-2-RLuc, P32121. Nature of the experiment: BRET. To be noted: chain shown with the change, HEK293A cells, read off a plot. The source holds these as a separate data set.
Where [4] appears, read: Ang II (1 μM), parent: est. 0.672.
[5] abbreviates: CTL (no stimulation), parent: est. 0.624.
[6] abbreviates: Hcy (100 μM), parent: est. 0.632.
[7] abbreviates: no stimulation (open bar, labelled WT in the key), parent: est. 0.624.

Substitutions are numbered along the chain they refer to. Names and notes keep the numbering of the source.

β-arrestin-2-RLuc, P32121, sequence (P32121 whole entry): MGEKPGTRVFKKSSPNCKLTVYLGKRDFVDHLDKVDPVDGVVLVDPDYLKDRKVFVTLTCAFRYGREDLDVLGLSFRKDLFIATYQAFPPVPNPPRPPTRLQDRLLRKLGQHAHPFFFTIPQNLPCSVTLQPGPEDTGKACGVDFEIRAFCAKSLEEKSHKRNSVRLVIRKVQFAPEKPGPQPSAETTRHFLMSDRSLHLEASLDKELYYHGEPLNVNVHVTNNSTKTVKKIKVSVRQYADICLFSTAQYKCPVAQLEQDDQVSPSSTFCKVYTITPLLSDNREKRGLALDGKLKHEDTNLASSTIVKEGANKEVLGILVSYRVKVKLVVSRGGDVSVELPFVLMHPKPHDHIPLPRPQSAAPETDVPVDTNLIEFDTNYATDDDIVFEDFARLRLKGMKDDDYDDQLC

B1: AT1-YFP (wild type), P30556 R167N (protein)
chain: MILNSSTEDGIKRIQDDCPKAGRHNYIFVMIPTLYSIIFVVGIFGNSLVVIVIYFYMKLKTVASVFLLNLALADLCFLLTLPLWAVYTAMEYRWPFGNYLCKIASASVSFNLYASVFLLTCLSIDRYLAIVHPMKSRLRRTMLVAKVTCIIIWLLAGLASLPAIIHNNVFFIENTNITVCAFHYESQNSTLPIGLGLTKNILGFLFPFLIILTSYTLIWKALKKAYEIQKNKPRNDDIFKIIMAIVLFFFFSWIPHQIFTFLDVLIQLGIIRDCRIADIVDTAMPITICIAYFNNCLNPLFYGFLGKKFKRYFLQLLKYIPPKAKSHSNLSTKMSTLSYRPSDNVSSSTKKPAPCFEVE
Take B1: the response was 0.657 Δ net BRET in experiment [1] (setting [4]), 0.621 Δ net BRET in experiment [1] (setting [5]), 0.621 Δ net BRET in experiment [2] (setting [5]) and 0.62 Δ net BRET in experiment [2] (setting [6]).

B2: human angiotensin II type 1 (AT1) receptor, P30556 R167A (protein)
chain: B1 chain with N167A
For B2, the response (% specific binding) in experiment [125I]-Angiotensin II (competing Hcy at log [Hcy] (M) = -2, parent: est. 34) came out at 34; in experiment [125I]-Angiotensin II (competing Hcy at log [Hcy] (M) = -4, parent: est. 45), 66; in experiment [125I]-Angiotensin II (competing Hcy at log [Hcy] (M) = -6, parent: est. 98), 100.

B3: AT1-YFP (wild type), P30556 R167A (protein)
chain: B1 chain with N167A
For B3, the response in experiment [1] (setting [4]) is 0.628 Δ net BRET; in experiment [1] (setting [5]), 0.629 Δ net BRET; in experiment [2] (setting [5]) it was 0.626 Δ net BRET; in experiment [2] (setting [6]) it was 0.622 Δ net BRET.

B4: AT1-YFP (wild type), P30556 C289S (protein)
chain: B1 chain with N167R, C289S
As to B4, the response in experiment [2] (setting [4]) was 0.69 Δ net BRET; in experiment [2] (setting [7]), 0.624 Δ net BRET; in experiment [3] (setting [6]) it was 0.623 Δ net BRET; in experiment [3] (setting [7]), 0.623 Δ net BRET.

B5: human angiotensin II type 1 (AT1) receptor, P30556 C289S (protein)
chain: B1 chain with N167R, C289S
For B5, the response (% specific binding) in experiment [125I]-Angiotensin II (competing Hcy at log [Hcy] (M) = -2, parent: est. 33) is 31; in experiment [125I]-Angiotensin II (competing Hcy at log [Hcy] (M) = -4, parent: est. 46) it was 76; in experiment [125I]-Angiotensin II (competing Hcy at log [Hcy] (M) = -6, parent: est. 97), 100.

B6: AT1-YFP (wild type), P30556 R167K (protein)
chain: B1 chain with N167K
Take B6: the response in experiment [1] (setting [4]) was 0.621 Δ net BRET; in experiment [1] (setting [5]), 0.618 Δ net BRET; in experiment [2] (setting [5]) it was 0.619 Δ net BRET; in experiment [2] (setting [6]), 0.618 Δ net BRET.

These data come from paper PMC5750214.
